From patent US20080300206

System: recombinant wild-type human alpha-synuclein

Substance	S87 phosphorylation, immunoblot (ELADW-110)	S129 phosphorylation in vitro, normalised by activity units	S129 phosphorylation, immunoblot (11A5), kinase:AS 1:200 molar	S129 phosphorylation, immunoblot (11A5), rank of signal	phospho ser-129 level in vitro, normalised for molarity
casein kinase I (CKI)	A signal was detected only with CKI phosphorylation	CKI gave a modest signal	Prominent signals came from GRK6, CKI, CKII and PLK2	CKI>GRK6>PLK2>GRK4>GRK5>GRK2	roughly equivalent levels of phospho ser-129 between CKI, GRK6 and PLK2
casein kinase II (CKII)	–	CKII was not detectable	Prominent signals came from GRK6, CKI, CKII and PLK2	–	–
